First the molecules themselves.
B1: BAR/IMD domain-containing adapter protein 2 (Homo sapiens), Q9UQB8-4 (parent)
chain: MSLSRSEEMHRLTENVYKTIMEQFNPSLRNFIAMGKNYEKALAGVTYAAKGYFDALVKMGELASESQGSKELGDVLFQMAEVHRQIQNQLEEMLKSFHNELLTQLEQKVELDSRYLSAALKKYQTEQRSKGDALDKCQAELKKLRKKSQGSKNPQKYSDKELQYIDAISNKQGELENYVSDGYKTALTEERRRFCFLVEKQCAVAKNSAAYHSKGKELLAQKLPLWQQACADPSKIPERAVQLMQQVASNGATLPSALSASKSNLVISDPIPGAKPLPVPPELAPFVGRMSAQESTPIMNGVTGPDGEDYSPWADRKAAQPKSLSPPQSQSKLSDSYSNTLPVRKSVTPKNSYATTENKTLPRSSSMAAGLERNGRMRVKAIFSHAAGDNSTLLSFKEGDLITLLVPEARDGWHYGESEKTKMRGWFPFSYTRVLDSDGSDRLHMSLQQGKSSSTGNLLDKDDLAIPPPDYGAASRAFPAQTASGFKQRPYSVAVPAFSQGLDDYGARSMSSGSGTLVSTV

The variants in the test derive from B1. Conditions: with rac1_human RAC1, P63000.
Turning to R11E;K143E, the “effect of a mutation on the interaction” value is given as “disrupting interaction”.

For the origin of these results see IntAct's records for PubMed 19171758.
